Laboratory results reported in patent publication US7115382B1, “Method for detecting IGFBP-4 protease without detecting IGFBP-4 protease/proMBP Complex” (Mayo Foundation for Medical Education and Research, priority 1999, dated 2006).

What was measured:
[1] = biological target: T1, PAPP-A (Homo sapiens, UniProt Q13219); test: IGFBP-4 proteolysis by PAPP-A purified from pregnancy serum, [125I]IGFBP-4 assay; type: biochemical; conditions: PAPP-A purified from pregnancy serum 500 ng, EDTA 5 mM, 1,10 phenantholine 5 mM, PMSF 10 mM, TIMP-1 5 μg/ml
T1 construct: a pro-part of 58 residues, and an 1547-residue circulating mature polypeptide; from tissue; host or cells: human term pregnancy serum
Protocol: (§1) PAPP-A Activity. IGFBP-4 proteolysis was assayed by incubating the sample overnight at 37° C. with 2 mM CaC2/50 mM Tris (pH 7.5)/10,000 cpm of [^125I]IGFBP-4 in the absence and presence of 5 nM IGF-II in a total volume of 25 μl. Proteins were separated by reducing 15% SDS/PAGE and visualized by autoradiography. For some experiments, PAPP-A polyclonal antibody or nonspecific rabbit IgG was added to the assay mixture or was used in conjunction with protein G plus protein A-agarose (Oncogene Science) to immunoprecipitate IGFBP-4 protease activity before assay.
IGFBP-4 proteolysis was assayed as described in Example 1, by incubating sample at 37° C. for 6 h with [^125I]IGFBP-4. Reaction products were separated by nonreducing 7.5–15% gradient SDS-PAGE, and visualized by autoradiography.
(§2) For some experiments, protease inhibitors (see Table 2) or PAPP-A polyclonal antibody were added to the assay mixture during the 6 h incubation. In others, PAPP-A antibody or nonspecific rabbit IgG was used in conjunction with Protein G-plus/Protein-A-agarose (Oncogene Science) to immunoprecipitate IGFBP-4 protease activity and the sample supernatants were then used in the protease assay.

[2] = biological target: T2, IGFBP-4 protease activity in follicular fluid (Homo sapiens, UniProt Q13219); test: IGFBP-4 proteolysis in IVF follicular fluid, cell-free [125I]IGFBP-4 assay; type: biochemical; conditions: for Effect on IGFBP-4 protease activity in IVF follicular fluid: added to the assay during 6 h incubation; for % Inhibition of IGFBP-4 proteolysis, FF: follicular fluid 10 μl, [125I]IGFBP-4, 6 h 37°C, EDTA 5 mM, 1,10 phenantholine 5 mM, PMSF 10 mM, Pefabloc 1 mM, TIMP-1 5 μg/ml
T2 construct: Follicular fluid was obtained at the time of follicle aspiration for in vitro fertilization (IVF) procedures; from tissue; host or cells: IVF follicular fluid
Protocol: PAPP-A Activity. […] For some experiments, PAPP-A polyclonal antibody or nonspecific rabbit IgG was added to the assay mixture or was used in conjunction with protein G plus protein A-agarose (Oncogene Science) to immunoprecipitate IGFBP-4 protease activity before assay.
as §2

[3] = biological target: T3, rPAPP-A (Homo sapiens, UniProt Q13219); test: Activity of recombinant PAPP-A against IGFBP-4; type: biochemical; conditions: in presence of IGF
T3 construct: because the mature rPAPP-A is antigenic, functional, and secreted abundantly into the culture medium; made in house; host or cells: human embryonic kidney 293T cells, pcDNA3.1-PAPP-A; culture supernatant or purified
Protocol: as §1
(§3) Measurement of PAPP-A Proteolytic Activity: IGFBP-4 proteolysis was assayed as described in Example 1. The activity of the PAPP-A/proMBP complex was compared to the activity of rPAPP-A in two parallel time course experiments scaled up to larger reaction volumes: Equal amounts of sample A (pool of pregnancy serum diluted to 7 μg/ml of PAPP-A/proMBP as determined by ELISA calibrated with purified PAPP-A/proMBP) and sample B (as sample A, but rPAPP-A supernatant added to 7 μg/ml as determined by ELISA calibrated with purified rPAPP-A) were incubated with [^125I]IGFBP-4 in the presence of 5 nM IGF-II. […] The experiment with sample A was also carried out in the presence of polyclonal anti(PAPP-A/proMBP). A similar time course experiment was performed for comparison of PAPP-A activity in selected column fractions.

[4] = biological target: insulin-like growth factor binding protein-4 ([125I]IGFBP-4) (human) (UniProt P22692); test: cell-based or functional assay
[5] = tested on: IGFBP-4; test: IGFBP-4 cleavage by PAPP-A forms (rPAPP-A, PAPP-A/proMBP, column fractions); type: biochemical, human; conditions: for Amount required to obtain the same degree of IGFBP-4 cleavage: initial experiment, purified proteins; for IGF-dependent IGFBP-4 protease activity: with and without IGF-II
Protocol: as §1, §3

[6] = biological target: PAPP-A (IGFBP-4 protease) in IVF follicular fluid (human) (UniProt Q13219); test: cell-based or functional assay
[7] = biological target: PAPP-A/proMBP complex purified from pregnancy serum (human) (UniProt Q13219); test: cell-based or functional assay
[8] = biological target: T4, insulin-like growth factor binding protein-4 ([125I]IGFBP-4) (UniProt P22692)
T4 sequence: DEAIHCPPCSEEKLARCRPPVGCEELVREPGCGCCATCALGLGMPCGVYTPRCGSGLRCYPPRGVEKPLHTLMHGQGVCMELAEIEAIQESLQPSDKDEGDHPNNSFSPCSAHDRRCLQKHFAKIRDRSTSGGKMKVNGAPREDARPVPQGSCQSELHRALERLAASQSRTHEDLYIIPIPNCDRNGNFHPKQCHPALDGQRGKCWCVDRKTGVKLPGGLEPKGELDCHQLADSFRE

[9] = tested on: human granulosa cells; conditions: Iwashita et al. 1996; cited from earlier work
[10] = biological target: PAPP-A present in pregnancy serum (human, UniProt Q13219 82-1627); test: cell-based or functional assay
[11] = biological target: T5, insulin-like growth factor binding protein-4 ([125I]IGFBP-4), P22692
T5 chain: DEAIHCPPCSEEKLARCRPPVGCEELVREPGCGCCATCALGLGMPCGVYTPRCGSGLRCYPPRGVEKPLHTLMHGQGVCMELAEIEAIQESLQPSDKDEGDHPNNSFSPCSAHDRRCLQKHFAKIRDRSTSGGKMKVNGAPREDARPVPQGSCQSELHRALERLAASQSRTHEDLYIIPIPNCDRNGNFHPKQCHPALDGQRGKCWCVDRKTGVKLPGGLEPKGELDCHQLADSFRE

T3 sequence (Q13219 with tags, fused parts or gaps): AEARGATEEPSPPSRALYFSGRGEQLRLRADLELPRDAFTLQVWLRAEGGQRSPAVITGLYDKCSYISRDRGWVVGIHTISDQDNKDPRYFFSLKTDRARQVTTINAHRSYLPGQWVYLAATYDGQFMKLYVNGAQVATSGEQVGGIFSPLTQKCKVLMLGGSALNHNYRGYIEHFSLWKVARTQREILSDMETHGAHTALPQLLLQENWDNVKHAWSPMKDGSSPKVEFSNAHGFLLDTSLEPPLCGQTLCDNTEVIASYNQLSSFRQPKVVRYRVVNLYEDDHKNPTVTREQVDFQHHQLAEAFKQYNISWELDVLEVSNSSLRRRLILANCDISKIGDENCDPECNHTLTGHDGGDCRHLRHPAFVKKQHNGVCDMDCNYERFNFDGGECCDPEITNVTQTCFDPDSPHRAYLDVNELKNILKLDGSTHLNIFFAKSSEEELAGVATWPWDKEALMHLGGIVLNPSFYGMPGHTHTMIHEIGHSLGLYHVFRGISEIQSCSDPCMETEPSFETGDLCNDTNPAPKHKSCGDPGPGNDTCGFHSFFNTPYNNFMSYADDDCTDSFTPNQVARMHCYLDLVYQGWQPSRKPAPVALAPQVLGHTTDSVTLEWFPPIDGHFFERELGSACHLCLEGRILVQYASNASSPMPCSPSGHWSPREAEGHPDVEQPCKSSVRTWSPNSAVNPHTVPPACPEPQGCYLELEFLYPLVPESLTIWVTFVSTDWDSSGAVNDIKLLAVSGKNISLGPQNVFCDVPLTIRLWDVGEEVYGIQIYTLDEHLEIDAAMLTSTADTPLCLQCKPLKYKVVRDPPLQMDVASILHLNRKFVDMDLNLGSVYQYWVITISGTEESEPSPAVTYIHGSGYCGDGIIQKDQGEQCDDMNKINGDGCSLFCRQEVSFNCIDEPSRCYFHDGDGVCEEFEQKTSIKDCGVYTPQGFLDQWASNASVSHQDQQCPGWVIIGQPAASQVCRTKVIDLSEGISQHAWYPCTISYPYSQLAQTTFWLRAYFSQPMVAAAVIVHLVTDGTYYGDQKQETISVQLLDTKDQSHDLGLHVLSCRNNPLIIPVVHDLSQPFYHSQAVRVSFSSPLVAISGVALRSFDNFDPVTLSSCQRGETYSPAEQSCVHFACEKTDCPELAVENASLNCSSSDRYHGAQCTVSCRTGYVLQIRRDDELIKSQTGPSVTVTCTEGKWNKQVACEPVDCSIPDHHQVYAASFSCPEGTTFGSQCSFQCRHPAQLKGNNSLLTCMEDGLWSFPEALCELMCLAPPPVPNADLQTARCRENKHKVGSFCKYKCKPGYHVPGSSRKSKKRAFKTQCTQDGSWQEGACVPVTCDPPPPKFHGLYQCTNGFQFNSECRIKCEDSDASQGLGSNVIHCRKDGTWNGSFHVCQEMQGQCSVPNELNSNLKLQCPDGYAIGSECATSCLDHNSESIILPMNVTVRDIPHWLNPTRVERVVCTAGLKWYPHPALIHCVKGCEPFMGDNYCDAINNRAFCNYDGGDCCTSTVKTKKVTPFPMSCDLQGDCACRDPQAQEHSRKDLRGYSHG

c1cnc2c(c1)ccc1cccnc12 [1,10 phenantholine, 1,10-phenanthroline]
% Inhibition of IGFBP-4 proteolysis, PAPP-A [1]: 100% | Effect on IGFBP-4 protease activity in IVF follicular fluid [2]: completely suppressed | % Inhibition of IGFBP-4 proteolysis, FF [2]: 100% | Inhibition of rPAPP-A activity against IGFBP-4 [3]: inhibited

O=C(O)CN(CCN(CC(=O)O)CC(=O)O)CC(=O)O [EDTA]
Effect on IGFBP-4 protease activity in IVF follicular fluid [2]: completely suppressed | Inhibition of rPAPP-A activity against IGFBP-4 [3]: inhibited

O=S(=O)(F)Cc1ccccc1 [PMSF]
% Inhibition of IGFBP-4 proteolysis, PAPP-A [1]: 20% | Effect on IGFBP-4 protease activity in IVF follicular fluid [2]: not | % Inhibition of IGFBP-4 proteolysis, FF [2]: 0%

Cl.NCCc1ccc(S(=O)(=O)F)cc1 [Pefabloc]
Effect on IGFBP-4 protease activity in IVF follicular fluid [2]: not | % Inhibition of IGFBP-4 proteolysis, FF [2]: 15%

PAPP-A/proMBP complex purified from pregnancy serum (from UniProt Q13219 82-1627; P13727 17-222)
amount required for the same degree of IGFBP-4 cleavage [4]: 50 ng

PAPP-A/proMBP: approximately 500 kDa disulfide-linked 2:2 complex of PAPP-A and proMBP purified from pregnancy serum
Amount required to obtain the same degree of IGFBP-4 cleavage [5]: approximately 50 ng | IGF-dependent IGFBP-4 protease activity [5]: exhibited IGF-dependent IGFBP-4 protease activity

TIMP-1 (from UniProt P01033 24-207)
% Inhibition of IGFBP-4 proteolysis (TIMP-1, 5 ug/ml) [6]: 0% | % Inhibition of IGFBP-4 proteolysis (TIMP-1, 5 ug/ml) [7]: 0%

TIMP-1: a broad spectrum inhibitor of matrix metalloproteinases
% Inhibition of IGFBP-4 proteolysis, PAPP-A [1]: 0% | Effect on IGFBP-4 protease activity in IVF follicular fluid [2]: had no effect | % Inhibition of IGFBP-4 proteolysis, FF [2]: 0% | Inhibition of rPAPP-A activity against IGFBP-4 [3]: not

rPAPP-A: recombinant PAPP-A expressed in mammalian cells, secreted as a homodimer of about 400 kDa devoid of proMBP
Amount required to obtain the same degree of IGFBP-4 cleavage [5]: 0.1 ng | Difference in specific activity, rPAPP-A versus PAPP-A in pregnancy serum ([5]; time course, 7 μg/ml each, 5 nM IGF-II): about 100 fold | IGF-dependent IGFBP-4 protease activity [5]: cleaves IGFBP-4 in an IGF dependent manner

recombinant PAPP-A (rPAPP-A)
amount required for the same degree of IGFBP-4 cleavage [8]: approximately 50 ng of PAPP-A/proMBP complex purified from pregnancy serum was required to obtain the same degree of IGFBP-4 cleavage as 0.1 ng of rPAPP-A | cleavage of IGFBP-4 [8]: IGFBP-4 was cleaved in the presence, but not in the absence of IGF

uncomplexed PAPP-A: PAPP-A antigen eluting around fraction 24 of pregnancy serum, uncomplexed PAPP-A dimer
Specific activity against IGFBP-4, early versus late eluting Mono Q peak of pregnancy serum ([5]; fraction 24 versus fraction 43): greater than 25 fold

B1: intact IGFBP4: intact insulin-like growth factor binding protein 4 (protein)
chain: DEAIHCPPCSEEKLARCRPPVGCEELVREPGCGCCATCALGLGMPCGVYTPRCGSGLRCYPPRGVEKPLHTLMHGQGVCMELAEIEAIQESLQPSDKDEGDHPNNSFSPCSAHDRRCLQKHFAKIRDRSTSGGKMKVNGAPREDARPVPQGSCQSELHRALERLAASQSRTHEDLYIIPIPNCDRNGNFHPKQCHPALDGQRGKCWCVDRKTGVKLPGGLEPKGELDCHQLADSFRE
Effect on IGF-stimulated estradiol production [9]: inhibited

B2: proform of eosinophil major basic protein (proMBP) (other, human, UniProt P13727 17-222, looked up)
chain: LHLRSETSTFETPLGAKTLPEDEETPEQEMEETPCRELEEEEEWGSGSEDASKKDGAVESISVPDMVDKNLTCPEEEDTVKVVGIPGCQTCRYLLVRSLQTFSQAWFTCRRCYRGNLVSIHNFNINYRIQCSVSALNQGQVWIGGRITGSGRCRRFQWVDGSRWNFAYWAAHQPWSRGGHCVALCTRGGHWRRAHCLRRLPFICSY
difference in specific activity between PAPP-A in pregnancy serum and rPAPP-A [10]: ~100 fold | specific activity against IGFBP-4 of the early (uncomplexed) against the late (PAPP-A/proMBP) Mono Q peak [10]: > 25 fold

B3: PAPP-A (IGFBP-4 protease) in IVF follicular fluid (protein)
chain: EARGATEEPSPPSRALYFSGRGEQLRLRADLELPRDAFTLQVWLRAEGGQRSPAVITGLYDKCSYISRDRGWVVGIHTISDQDNKDPRYFFSLKTDRARQVTTINAHRSYLPGQWVYLAATYDGQFMKLYVNGAQVATSGEQVGGIFSPLTQKCKVLMLGGSALNHNYRGYIEHFSLWKVARTQREILSDMETHGAHTALPQLLLQENWDNVKHAWSPMKDGSSPKVEFSNAHGFLLDTSLEPPLCGQTLCDNTEVIASYNQLSSFRQPKVVRYRVVNLYEDDHKNPTVTREQVDFQHHQLAEAFKQYNISWELDVLEVSNSSLRRRLILANCDISKIGDENCDPECNHTLTGHDGGDCRHLRHPAFVKKQHNGVCDMDCNYERFNFDGGECCDPEITNVTQTCFDPDSPHRAYLDVNELKNILKLDGSTHLNIFFAKSSEEELAGVATWPWDKEALMHLGGIVLNPSFYGMPGHTHTMIHEIGHSLGLYHVFRGISEIQSCSDPCMETEPSFETGDLCNDTNPAPKHKSCGDPGPGNDTCGFHSFFNTPYNNFMSYADDDCTDSFTPNQVARMHCYLDLVYQGWQPSRKPAPVALAPQVLGHTTDSVTLEWFPPIDGHFFERELGSACHLCLEGRILVQYASNASSPMPCSPSGHWSPREAEGHPDVEQPCKSSVRTWSPNSAVNPHTVPPACPEPQGCYLELEFLYPLVPESLTIWVTFVSTDWDSSGAVNDIKLLAVSGKNISLGPQNVFCDVPLTIRLWDVGEEVYGIQIYTLDEHLEIDAAMLTSTADTPLCLQCKPLKYKVVRDPPLQMDVASILHLNRKFVDMDLNLGSVYQYWVITISGTEESEPSPAVTYIHGSGYCGDGIIQKDQGEQCDDMNKINGDGCSLFCRQEVSFNCIDEPSRCYFHDGDGVCEEFEQKTSIKDCGVYTPQGFLDQWASNASVSHQDQQCPGWVIIGQPAASQVCRTKVIDLSEGISQHAWYPCTISYPYSQLAQTTFWLRAYFSQPMVAAAVIVHLVTDGTYYGDQKQETISVQLLDTKDQSHDLGLHVLSCRNNPLIIPVVHDLSQPFYHSQAVRVSFSSPLVAISGVALRSFDNFDPVTLSSCQRGETYSPAEQSCVHFACEKTDCPELAVENASLNCSSSDRYHGAQCTVSCRTGYVLQIRRDDELIKSQTGPSVTVTCTEGKWNKQVACEPVDCSIPDHHQVYAASFSCPEGTTFGSQCSFQCRHPAQLKGNNSLLTCMEDGLWSFPEALCELMCLAPPPVPNADLQTARCRENKHKVGSFCKYKCKPGYHVPGSSRKSKKRAFKTQCTQDGSWQEGACVPVTCDPPPPKFHGLYQCTNGFQFNSECRIKCEDSDASQGLGSNVIHCRKDGTWNGSFHVCQEMQGQCSVPNELNSNLKLQCPDGYAIGSECATSCLDHNSESIILPMNVTVRDIPHWLNPTRVERVVCTAGLKWYPHPALIHCVKGCEPFMGDNYCDAINNRAFCNYDGGDCCTSTVKTKKVTPFPMSCDLQGDCACRDPQAQEHSRKDLRGYSHG
proteolysis of [125I]IGFBP-4 [11]: Incubation of IVF follicular fluid with [125I]IGFBP-4 resulted in the loss of intact IGFBP-4 ... and the generation of radiolabeled fragments of 18- and 14-kDa
